Read-outs that look alike come from different tables or passages of the source.

The target in experiment [1] is collagen type I, bovine tendon, as absorbable collagen sponge (ACS) (bovine) (UniProt P02453). The experiment is described as follows: absorption and release from a collagen sponge, protein in the supernatant by micro-BCA; ACS (150 μL) treated with the fragment in PBS for 1 h at room temperature (75 μg; for ColG-FNIII12-14 also 37.5 and 15 μg); release into 150 μL PBS at 37 °C, supernatant taken and PBS refreshed at 36, 60, 120 h.

The target is the same in experiment [2].
Experiment [3] shares this target. The source holds these as a separate data set.
The target in experiment [4] is ColG-FNIII12-14 treated collagen scaffold (Clostridium histolyticum | not stated | bovine) (UniProt P02453). Put plainly: absorption and release of fluorescent rhBMP-2 from a collagen sponge, fluorescence of the supernatant; Dylight 488 rhBMP-2 (0.1, 0.5, 1, 2 μg/mL) incubated 1 h at 37 °C with ACS with or without ColG-FNIII12-14; release into PBS at 37 °C, supernatant read and PBS refreshed at 36, 60, 120 h.

UniProt P02453, sequence (P02453 162-1217, chain 1 of 2): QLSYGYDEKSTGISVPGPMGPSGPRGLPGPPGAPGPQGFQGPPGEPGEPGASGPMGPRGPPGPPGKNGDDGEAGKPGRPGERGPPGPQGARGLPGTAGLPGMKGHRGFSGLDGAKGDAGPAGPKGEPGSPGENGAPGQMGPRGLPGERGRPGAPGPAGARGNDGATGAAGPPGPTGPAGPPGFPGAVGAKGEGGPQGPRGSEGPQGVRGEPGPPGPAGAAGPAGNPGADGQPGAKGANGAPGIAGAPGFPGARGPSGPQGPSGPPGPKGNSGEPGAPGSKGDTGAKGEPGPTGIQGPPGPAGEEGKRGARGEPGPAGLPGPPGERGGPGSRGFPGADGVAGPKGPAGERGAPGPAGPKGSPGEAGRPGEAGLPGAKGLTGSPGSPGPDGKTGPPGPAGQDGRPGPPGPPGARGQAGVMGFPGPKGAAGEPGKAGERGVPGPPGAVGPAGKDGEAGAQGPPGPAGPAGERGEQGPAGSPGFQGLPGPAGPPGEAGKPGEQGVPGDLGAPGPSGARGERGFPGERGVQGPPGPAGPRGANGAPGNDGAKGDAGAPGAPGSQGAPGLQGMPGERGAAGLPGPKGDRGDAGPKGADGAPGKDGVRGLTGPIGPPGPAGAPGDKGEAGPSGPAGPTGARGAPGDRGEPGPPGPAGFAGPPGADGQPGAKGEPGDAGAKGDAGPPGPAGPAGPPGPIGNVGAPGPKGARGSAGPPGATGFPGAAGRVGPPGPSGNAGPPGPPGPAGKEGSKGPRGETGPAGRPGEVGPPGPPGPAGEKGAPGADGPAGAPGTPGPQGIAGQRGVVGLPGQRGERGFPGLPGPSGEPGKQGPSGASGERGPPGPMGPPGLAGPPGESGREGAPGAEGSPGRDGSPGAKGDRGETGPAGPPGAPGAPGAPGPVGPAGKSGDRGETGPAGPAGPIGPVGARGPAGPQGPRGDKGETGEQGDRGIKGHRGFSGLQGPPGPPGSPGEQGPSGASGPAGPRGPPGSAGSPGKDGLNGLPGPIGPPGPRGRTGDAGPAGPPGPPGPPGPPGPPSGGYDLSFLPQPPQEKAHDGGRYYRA
UniProt P02453, sequence (P02465 80-1117, chain 2 of 2, further chain): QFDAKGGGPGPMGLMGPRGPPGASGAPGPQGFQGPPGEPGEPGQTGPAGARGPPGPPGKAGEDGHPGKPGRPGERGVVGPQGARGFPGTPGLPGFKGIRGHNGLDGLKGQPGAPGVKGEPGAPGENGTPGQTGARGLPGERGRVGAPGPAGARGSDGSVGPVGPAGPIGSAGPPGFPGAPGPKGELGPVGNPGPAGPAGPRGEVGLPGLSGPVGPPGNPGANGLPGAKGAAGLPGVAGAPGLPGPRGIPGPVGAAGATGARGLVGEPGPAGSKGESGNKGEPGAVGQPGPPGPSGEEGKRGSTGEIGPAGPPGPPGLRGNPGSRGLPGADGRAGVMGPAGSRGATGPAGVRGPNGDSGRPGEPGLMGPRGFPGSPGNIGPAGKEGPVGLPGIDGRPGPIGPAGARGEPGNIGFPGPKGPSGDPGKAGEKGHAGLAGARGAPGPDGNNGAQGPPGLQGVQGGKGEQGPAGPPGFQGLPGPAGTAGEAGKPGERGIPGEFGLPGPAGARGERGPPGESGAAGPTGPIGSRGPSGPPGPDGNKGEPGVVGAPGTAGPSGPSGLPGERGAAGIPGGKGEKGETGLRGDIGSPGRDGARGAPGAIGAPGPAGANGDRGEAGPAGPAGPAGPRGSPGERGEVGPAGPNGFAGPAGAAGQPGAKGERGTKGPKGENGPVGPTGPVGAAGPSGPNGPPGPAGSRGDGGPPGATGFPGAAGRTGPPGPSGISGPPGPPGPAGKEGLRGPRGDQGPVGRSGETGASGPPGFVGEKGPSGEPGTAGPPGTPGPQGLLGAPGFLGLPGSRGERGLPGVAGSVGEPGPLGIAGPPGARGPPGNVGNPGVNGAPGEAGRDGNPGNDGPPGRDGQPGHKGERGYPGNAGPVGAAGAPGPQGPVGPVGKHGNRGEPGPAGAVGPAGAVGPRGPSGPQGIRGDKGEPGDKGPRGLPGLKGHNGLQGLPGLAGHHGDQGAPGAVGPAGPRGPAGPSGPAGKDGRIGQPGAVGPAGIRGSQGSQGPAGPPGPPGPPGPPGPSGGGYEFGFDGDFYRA

On to ColG-FNIII12-14 protein fragment, for which the percent of the absorbed fragment remaining bound after 120 h in experiment [1] amounted to 43%.
As to ColH-FNIII12-14 protein fragment, the amount of fragment remaining on the ACS after 120 h (pmol per 1 mg of collagen) in experiment [2] was 90. Also, in experiment [3], the percent of the absorbed fragment remaining bound after 120 h was 10%.
On to PLGF-FNIII12-14 protein fragment, for which the percent of the absorbed fragment remaining bound after 120 h in experiment [1] came out at 10%.

B1: recombinant human bone morphogenic protein 2, tagged with Dylight 488 (ligand)
chain: QAKHKQRKRLKSSCKRHPLYVDFSDVGWNDWIVAPPGYHAFYCHGECPFPLADHLNSTNHAIVQTLVNSVNSKIPKACCVPTELSAISMLYLDENEKVVLKNYQDMVVEGCGCR
modifications: Dylight 488 (amino reactive NHS ester dye)
In experiment [4], B1 registered a percent of rhBMP-2 absorbed of 30 to 32% and a percent of the absorbed rhBMP-2 retained after 120 h of 33%.

(Values after paper PMC10173277.)
